This passage reports protein stability index results from the supplement of paper PMC10724198.

± gives the standard deviation of the averaged measurements.
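Note: PSI is a weighted mean of sequencing reads over stability bins, variants kept only with over 10 reads, mCherry proximal and sfGFP distal, peptide attached via GGGS linker.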

In this data set the test system is Saccharomyces cerevisiae. In words: protein stability index of tFT-peptide fusion (C-terminal peptide) (PSI (0-1 scale)); higher = more stable (slower turnover). Conditions: genetic background: wild type; temperature: 30 C.
The sequence KSLRLFSVLSFV gave a protein stability index of 0.627 ± 0.016.
The figure for KSVAKLGHGGSP is 0.677 ± 0.064.
The figure for KSVSVDGYNKED is 0.646 ± 0.01; for KSYRVGKMAAQR it is 0.683 ± 0.012; for KTAKSEEPILYR it is 0.753 ± 0.0083.
The figure for KTEKTKIKKKRM is 0.684 ± 0.0075; for KTFPPVTLDFSS it is 0.609 ± 0.013.
Turning to KTINKEQKKKEM, the protein stability index was 0.7 ± 0.036.
To KTKERARTISRV belongs 0.721 ± 0.024; to KTKKPIILDTSN, 0.6406 ± 0.0047; to KTKKYIQKNKKR, 0.773 ± 0.012.
In the case of KTNNQVDTSVKD, the protein stability index worked out at 0.645 ± 0.054.
The figure for KTNNYPDNNPPG is 0.611 ± 0.016.
To KTRHMQGNRVDS belongs 0.603 ± 0.045; to KTRPVCKVSCKL, 0.77 ± 0.092.
The figure for KTRRHDQKMEKI is 0.659 ± 0.026.
For the sequence KTSQYKPREKID, the protein stability index is 0.736 ± 0.04.
To KTTETVLRKRTK belongs 0.737 ± 0.049; to KTTKEKESQEKN, 0.723 ± 0.029.
The figure for KTYKNKTQQNAS is 0.746 ± 0.045; for KVGWGMRGVRGG it is 0.66 ± 0.015.
The figure for KVHVILTGKYEI is 0.7012 ± 0.0025; for KVREGEARKEST it is 0.6826 ± 0.0017.
For KVSKHIKTNDSI, the protein stability index turned out to be 0.65 ± 0.02.
The figure for KWCQSNNIVKRT is 0.7 ± 0.011.
For KYFCSLAFFLFA, the protein stability index amounted to 0.502 ± 0.0073.
To KYINSASLIVYY belongs 0.693 ± 0.06; to LAAGPSERTART, 0.685 ± 0.052.
In turn, LACMWICPHIQA gave a protein stability index of 0.606 ± 0.023.
To LADLLRCSYSLS belongs 0.677 ± 0.046; to LAGRARLVMCPR, 0.639 ± 0.0068; to LAGVSTPLPPPP, 0.696 ± 0.029.
The figure for LAHAGSRPPTPG is 0.6754 ± 0.0016; for LALHPPPRVPPT it is 0.701 ± 0.036; for LANVGLDVSRIS it is 0.696 ± 0.012.
The figure for LAPPLILLPFVD is 0.699 ± 0.033; for LAPPPAAPRFCL it is 0.652 ± 0.008; for LAPPYPSSASSH it is 0.688 ± 0.022.
The sequence LAQLPPSLRFPP gave a protein stability index of 0.72 ± 0.1.
To LARLPPPSLSRV belongs 0.713 ± 0.055; to LASTMTIMLPGC, 0.703 ± 0.15.
To LASVLRESRIST belongs 0.671 ± 0.0078; to LATDVGHRLLGI, 0.707 ± 0.042; to LAVWSVVGGGVV, 0.637 ± 0.008.
To LAWLGLHERTLF belongs 0.685 ± 0.0077; to LAYIFTPVRTTG, 0.799 ± 0.26.
For LCCLSSLAMLFF, the protein stability index is 0.7 ± 0.12.
To LCLIGQPQTRVS belongs 0.695 ± 0.17; to LCLTLPSDSSAP, 0.841 ± 0.073.
To LCRRGGRSACGS belongs 0.7019 ± 0.0067; to LCSGRGGRVCGG, 0.669 ± 0.038; to LCVRFFGVKWAF, 0.594 ± 0.0095.
To LCWQALSLGVMC belongs 0.526 ± 0.023; to LDAFYVNVGLFG, 0.732 ± 0.045.
LDGLLVCSNWPA gave a protein stability index of 0.805 ± 0.07.
To LDHFGASYCPRG belongs 0.706 ± 0.027; to LDPGPLVRTPRL, 0.692 ± 0.076.
In turn, LDPHPFRGHACC returned a protein stability index of 0.779 ± 0.3.
To LDPPCPTARLPH belongs 0.61 ± 0.052; to LDSMSRPGATVS, 0.668 ± 0.051.
The figure for LDVAFLMSRFSS is 0.731 ± 0.024; for LDVGYVLGLERS it is 0.681 ± 0.033.
The figure for LEGGWRVGGGRL is 0.683 ± 0.015; for LEGYFMLPRSAW it is 0.736 ± 0.065; for LENIHVLETIFT it is 0.6022 ± 0.0054.
Sequence LERCKSLDSIVL displayed a protein stability index of 0.701 ± 0.071.
To LESLWEAIRTLF belongs 0.5136 ± 0.005; to LFAKVVSGYDLG, 0.711 ± 0.024.
The figure for LFALRLLSREGI is 0.604 ± 0.046; for LFDGPFPHLFPT it is 0.718 ± 0.091; for LFELVRTCDRCV it is 0.7 ± 0.03.
To LFFLLPSSPIGF belongs 0.705 ± 0.011; to LFFLPSSSLSPL, 0.731 ± 0.022.
Turning to LFFRFGRWFLGF, the protein stability index was 0.671 ± 0.027.
LFGHMENNLLKS gave a protein stability index of 0.722 ± 0.046.
To LFGQTVLLSAGT belongs 0.713 ± 0.018; to LFHFLSPVALPS, 0.6649 ± 0.0041; to LFITTSLFRPFA, 0.53 ± 0.015.
The figure for LFLPDPHSLTFH is 0.744 ± 0.044.
The figure for LFLSLFLFPSLS is 0.57 ± 0.03; for LFLYPFCVGGFL it is 0.714 ± 0.016.
With LFPLHLPSPPPG, the protein stability index was determined as 0.7207 ± 0.0018.
To LFPLISPLQSER belongs 0.737 ± 0.026; to LFPVTSLFPPLP, 0.706 ± 0.012.
The figure for LFSSSLISPLFA is 0.582 ± 0.025; for LFTLFPPFFYSR it is 0.681 ± 0.0079.
The figure for LFVGCRDPLCGV is 0.723 ± 0.00029; for LFVMGSACPLRI it is 0.681 ± 0.029.
On to LFVPAASRLAFS, for which the protein stability index was found to be 0.686 ± 0.011.
LFVSGVPRSWDR had a protein stability index of 0.707 ± 0.19.
To LGAAMRSAVEAA belongs 0.64 ± 0.013; to LGCGVSLWVVPG, 0.712 ± 0.034.
Regarding LGCSVGESVGAG, the protein stability index came out at 0.68 ± 0.03.
The figure for LGFNRRSKTRMI is 0.704 ± 0.014.
To LGGARWSGLPHV belongs 0.707 ± 0.085.
The figure for LGGGAGAGYWVG is 0.741 ± 0.032; for LGGGAGLRCGGF it is 0.673 ± 0.02.
On to LGGGARGSGGGA, for which the protein stability index was 0.727 ± 0.028.
As for LGGGGKNGSERV, the protein stability index was determined as 0.696 ± 0.017.
The figure for LGGRTWTLVRSG is 0.64 ± 0.033; for LGGVLSRQPYSE it is 0.643 ± 0.014.
The figure for LGGVRRRDWQEG is 0.677 ± 0.016; for LGIVSLDWLWLR it is 0.513 ± 0.043.
The figure for LGKSRVHLWTGT is 0.706 ± 0.04; for LGLFECAFLDRS it is 0.736 ± 0.013.
Sequence LGLPISREASVG gave a protein stability index of 0.637 ± 0.011.
The figure for LGLWSSVFGSSL is 0.743 ± 0.018; for LGPAPFSPPPPL it is 0.738 ± 0.041; for LGPLPHDGFSMF it is 0.761 ± 0.011.
The figure for LGPPPPPASVCR is 0.647 ± 0.012; for LGPRRPGQSGSR it is 0.712 ± 0.011.
To LGPSTCPCEVQS belongs 0.677 ± 0.015.
LGRGRGGCLGEL had a protein stability index of 0.5915 ± 0.0034.
To LGRNLGKDPVEV belongs 0.593 ± 0.11; to LGRNTVIGLCLE, 0.642 ± 0.1; to LGRRVGWEVSGE, 0.687 ± 0.024.
